Measured values reported in paper PMC8727950.

Target: honey bee (Apis mellifera) vitellogenin, full-length hemolymph Vg (honey bee (Apis mellifera)) (UniProt Q868N5)
Assay: native gel or EMSA; BN-PAGE of purified Vg, two different amounts loaded; precast 3-12% acrylamide gels, 4 °C, 2 h at 150 V; no reducing agent in loading buffer or gel; monomer to dimer

Substance: honey bee (Apis mellifera) vitellogenin, full-length hemolymph Vg (from UniProt Q868N5 17-1770) (natural protein)
- stoichiometry N: 2
